Data: PMC7495481, “Sequence specificity analysis of the SETD2 protein lysine methyltransferase and discovery of a SETD2 super-substrate” (Communications Biology, 2020)
Ends that are not written are not given here.

Tests used:
SETD2 [1] = target: T1, SETD2 (Homo sapiens, UniProt Q9BYW2); conditions: H3K36 peptide, previously determined under the same conditions; ref [30]; cited from earlier work
T1 construct: SETD2 catalytic SET domain (amino acids 1347–1711, UniProt No: Q9BYW2); made in house; host or cells: E. coli
T1 sequence (Q9BYW2 1347-1711): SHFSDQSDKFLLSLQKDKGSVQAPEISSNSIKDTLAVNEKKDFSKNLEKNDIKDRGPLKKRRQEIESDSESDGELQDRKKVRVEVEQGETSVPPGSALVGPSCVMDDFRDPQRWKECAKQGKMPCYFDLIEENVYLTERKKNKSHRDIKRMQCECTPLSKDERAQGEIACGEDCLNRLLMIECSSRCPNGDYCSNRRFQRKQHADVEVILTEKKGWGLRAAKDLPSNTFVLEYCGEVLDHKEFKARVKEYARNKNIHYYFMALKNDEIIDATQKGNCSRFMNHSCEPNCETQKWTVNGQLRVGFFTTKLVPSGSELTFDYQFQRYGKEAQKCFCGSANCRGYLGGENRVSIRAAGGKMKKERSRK

SETD2 [2] = target: T1, SETD2; assay: Protein methylation assay (non-histone proteins, GST fusions, nucleosomes, H3.1); type: biochemical
Description: The 9 new putative non-histone substrates of SETD2 were cloned into a pGEX-6p2 bacterial expression vector for protein expression. Six of them could be expressed and purified through glutathione sepharose beads (Table 1). For comparison, the super-substrate sequence was cloned with a […] GST-tag (ssK36-GST) to mimic the natural setting of the H3K36 site in the N-terminal tail of histone 3. Similar amounts of the purified non-histone substrate proteins and the ssK36-GST protein were loaded on an SDS-gel and stained with Coomassie BB (Supplementary Fig. 6a). Afterward protein methylation reactions were conducted using radioactively labeled AdoMet and the radioactive signal of the methyl group transfer was detected by autoradiography (Supplementary Fig. 6b). […] Next, we aimed to confirm the FBN1 methylation at the predicated target lysine K666. For this, a K666R mutation was introduced and the wildtype and mutant FBN1 proteins were purified by affinity chromatography. […]
Protein methylation reactions were performed in 40 µl methylation buffer containing 0.76 µM radioactive labeled AdoMet (PerkinElmer), approximately 20 µg of substrate protein and 6 µM SETD2 enzyme (if not otherwise indicated) for 3 h at 25 °C. […] The radioactive methylation signal was detected by a hyperfilm^TM high performance autoradiography film (GE Healthcare) at −80 °C in the dark. […]

SETD2 [3] = target: T1, SETD2; assay: Western Blot detection of GST fusion methylation by SETD2 with H3K36me3 antibody; type: biochemical; conditions: incubated with SETD2 and unlabeled AdoMet
Procedure: Supplementary Fig. 9: Control experiments related to Fig. 6c. a Validation of the detection of ssK36-GST methylation by the α-H3K36me3 antibody. The purified ssK36-GST and H3K36-GST substrates were incubated with SETD2 and unlabeled AdoMet. Afterwards, the proteins were separated by SDS-PAGE and blotted. Western Blot […]
of H3K36-GST methylation by SETD2 observed in Fig. 6a and 6b. Equal loading of the GST-tagged proteins is shown in the Coomassie BB stain of a parallel gel, equal loading of SETD2 is shown in the Ponceau S stain of the Western Blot membrane. b YFP-tagged ssK36 and H3K36 substrates were transfected into HEK293 cells together with DsRed-tagged SETD2 or DsRed empty vector (EV). The expression levels of DsRed-SETD2 and DsRed from EV were determined […]
Example of the FACS primary data for DsRed expression. d Average fraction of DsRed positive cells in three independent experiments normalized to DsRed-SETD2 + YFP-ssK36. EV, empty […]
(1 picture or pasted object on this page, not shown here)

SETD2 [4] = target: T1, SETD2; assay: Peptide SPOT array target lysine methylation of selected non-histone peptides (Fig. 3b); type: biochemical; conditions: Exp1–Exp3, 3–6 µM SETD2, 0.76 µM AdoMet, 60 min, pH 9
Description: However, we could identify 166 possible targets, which contain partial matches to the substrate specificity profile. The possible methylation of these 166 putative substrates was investigated at the peptide level. For this, fifteen amino acid long peptides containing the sequence of the non-histone targets surrounding the predicted target lysine were synthesized on a membrane. The H3K36 (29–43) peptide (spots A1, I9), the super-substrate peptide (spots A3, I11) and the corresponding lysine to alanine mutation peptides (spot A2, I10, and A4, I12) were included as positive and negative controls (Fig. 3a, Supplementary Fig. 4 and Supplementary Table 2). The methylation reactions and the detection of the methylation signals were performed in duplicates as described above. We observed that all of the investigated peptides were more weakly methylated than the super-substrate peptide. […] In the next step, 20 of the peptides were selected for further investigation based on the methylation intensity and the known functions of the proteins to confirm the methylation at the predicted target site. The peptides were synthesized on another membrane, now including the target lysine to alanine mutation control peptides in each case. The methylation reactions and the detection of the signal were conducted as described above (Fig. 3b, Supplementary Fig. 5 and Supplementary Table 3).
Fig. 3 Identification of non-histone substrates of SETD2. a Candidate non-histone peptide substrates were identified in the human proteome based on the SETD2 super-substrate specificity profile. The peptides were synthesized on a peptide SPOT array (Supplementary Table 2) and methylated by SETD2. As controls, the H3K36, H3K36A, ssK36 and ssK36A peptides were included on spots A1–A4 and I9–I12. The autoradiography image is an example of the obtained results. […] The quantification of the data of two experiments is shown in Supplementary Fig. 4. b Analysis of target lysine methylation of selected non-histone substrate peptides. Peptide SPOT arrays were synthesized containing the non-histone peptide substrates identified in panel A in addition to the lysine to alanine mutations presented on the array as every second spot (Supplementary Table 3). As controls, the H3K36, H3K36A, ssK36, and ssK36A mutant peptides were included on spot A1–A4 and C5–C8. The autoradiography image is an example of the obtained results. The quantification of the data of three experiments is shown in Supplementary Fig. 5. Peptides selected for furhter analysis are highlighted by blue circles. c Protein methylation of FBN1 and confirmation of the target lysine methylation. Both wild type (WT) and mutant (K666R) FBN1 were purified and equal amounts were methylated by SETD2 (2 µM). […] The size of FBN1 is indicated by an asterisk.
(§1) Peptide arrays containing fifteen amino acid long peptides were synthesized using the SPOT synthesis method[48] with an Autospot peptide array synthesizer (Intavis AG, Köln, Germany). After synthesis, the obtained membranes were pre-incubated in methylation buffer (20 mM Tris/HCl pH 9, 0.01% Triton X-100, 10 mM DTT, 1.5 mM MgCl2) for 5 min on a shaker. Thereafter, the membranes were incubated in methylation buffer supplemented with 0.76 µM radioactively labeled AdoMet (PerkinElmer) and 3–6 µM SETD2 enzyme for 60 min on a shaker. After methylation, the membranes were washed 5 times for 5 min in wash buffer (100 mM NH4HCO3, 1% SDS) and incubated in amplify NAMP100V (GE Healthcare) for 5 min. This was followed by the exposure of the membranes to a hyperfilm^TM high performance autoradiography (GE Healthcare) film at −80 °C in the dark. The films were developed with an Optimax Typ TR machine after different exposue times. For quantification the signal intensities were measured with the Phoretix^TM software and analyzed with Microsoft Excel.

SETD2 [5] = target: T1, SETD2; assay: Peptide SPOT array methylation of reported SETD2 substrates; type: biochemical; conditions: SPOT array on cellulose membrane; 0.76 µM radioactive AdoMet, 3–6 µM SETD2, 60 min, pH 9; autoradiography
Procedure: Next, the SETD2 activity was tested on peptide SPOT arrays containing fifteen amino acid long peptides immobilized on a cellulose membrane. As reported SETD2 substrates, the H3K36 (29–43), α -tubulin (33–47) and STAT1 (518–532) peptides (with the target lysine centered in each case) were included, and peptides with the corresponding target lysine mutated to alanine were used as negative controls. The peptide array was incubated in methylation buffer supplemented with SETD2 and radioactively labeled AdoMet. […] Methylation of the previously reported non-histone substrates α -tubulin and STAT1 was not detectable at the peptide level and, therefore, they were excluded from further investigation.
as §1
Supplementary Fig. 1: SETD2 protein and catalytic activity. a Purified His6-tagged SETD2 SET domain (1347-1711) was separated on an SDS-gel and […]
stained with Coomassie BB. […]
tubulin (33-47), STAT1 (518-532) and their corresponding target lysine to alanine mutant peptides were synthesized on a cellulose membrane. The membrane was incubated in methylation buffer supplemented with radioactively labeled AdoMet and SETD2. The signal of the transferred radioactive methyl groups was visualized by autoradiography.

SETD2 [6] = target: T1, SETD2; conditions: ref [18],[19]; cited from earlier work
Description: SETD2 is a PKMT initially in 2005 identified to methylate H3K36[8]. So far, lysine 36 in H3 was still the best substrate known for this enzyme at the peptide level. At the protein level, H3 methylation by SETD2 is weak, but it is strongly stimulated in the context of a nucleosome as shown here by us and previously by others. […] In thi ...

## H3K36 peptide: H3K36 (27–43) peptide purchased from Intavis AG (KSAPATGGVKKPHRYRP; UniProt P68431 28-44, looked up, fragment)
SETD2 [1]
  Km: 65 µM

## H3K36-GST: H3K36 (29–43) sequence cloned with C-terminal GST-tag (APATGGVKKPHRYRP; also: C-terminal GST tag fusion; UniProt P68431 30-44, looked up, fragment)
SETD2 [2]; equal amounts, 6 µM SETD2, 0.76 µM AdoMet, 3 h, 25 °C, autoradiography
  methylation of GST fusion proteins (in words): no signal was detected
SETD2 [3]
  H3K36me3 antibody Western Blot signal: very weak signal

## STCYGGYKRGQCIKP [FBN1, Fibrillin-1 peptide, target lysine 666]
SETD2 [4]
  Relative methylation signal, Average: 0.6365
SETD2 [2]; based on own results and literature data, ref [18],[19]
  comparison of protein methylation efficiency: more efficiently methylated than H3, α -tubulin and STAT1

B1: STAT1: known non-histone substrate of SETD2, methylated at K525 (protein, UniProt P42224 2-750, looked up)
Signal transducer and …: SQWYELQQLDSKFLEQVHQLYDDSFPMEIRQYLAQWLEKQDWEHAANDVSFATIRFHDLLSQLDDQYSRFSLENNFLLQHNIRKSKRNLQDNFQEDPIQMSMIIYSCLKEERKILENAQRFNQAQSGNIQSTVMLDKQKELDSKVRNVKDKVMCIEHEIKSLEDLQDEYDFKCKTLQNREHETNGVAKSDQKQEQLLLKKMYLMLDNKRKEVVHKIIELLNVTELTQNALINDELVEWKRRQQSACIGGPPNACLDQLQNWFTIVAESLQQVRQQLKKLEELEQKYTYEHDPITKNKQVLWDRTFSLFQQLIQSSFVVERQPCMPTHPQRPLVLKTGVQFTVKLRLLVKLQELNYNLKVKVLFDKDVNERNTVKGFRKFNILGTHTKVMNMEESTNGSLAAEFRHLQLKEQKNAGTRTNEGPLIVTEELHSLSFETQLCQPGLVIDLETTSLPVVVISNVSQLPSGWASILWYNMLVAEPRNLSFFLTPPCARWAQLSEVLSWQFSSVTKRGLNVDQLNMLGEKLLGPNASPDGLIPWTRFCKENINDKNFPFWLWIESILELIKKHLLPLWNDGCIMGFISKERERALLKDQQPGTFLLRFSESSREGAITFTWVERSQNGGEPDFHAVEPYTKKELSAVTFPDIIRNYKVMAAENIPENPLKYLYPNIDKDHAFGKYYSRPKEAPEPMELDGPKGTGYIKTELISVSEVHPSRLQTTDNLLPMSPEEFDEVSRIVGSVEFDSMMNTV
SETD2 [5]
  peptide spot methylation signal: did not show a detectable peptide methylation signal
SETD2 [6]
  reported methylation by SETD2 compared with H3K36: weaker than H3K36
